Measured values taken from US20040091478A1.

Target: F1024-1-3 antibody (monoclonal antibody produced by hybridoma F1024-1-3, Accession No. FERM BP-7511)
Test: competition ELISA: 4-fold diluted serum mixed with 1 µg/mL peroxidase-labeled F1024-1-3, added to immobilised human CD14(1-356)

B1: rabbit soluble type CD14 (in New Zealand white rabbit serum) (receptor, UniProt Q28680 18-342, looked up)
chain: STDTPEPCELDDDDIRCVCNFSDPQPDWSSALQCMPAVQVEMWGGGHSLEQFLRQADLYTDQRRYADVVKALRVRRLTVGAVQVPAPLLLGVLRVLGYSRLKELALEDIEVTGTAPPPPPLEATGPALSTLSLRNVSWPKGGAWLSELQQWLKPGLQVLNIAQAHTLAFSCEQVRTFSALTTLDLSENPGLGERGLVAALCPHKFPALQDLALRNAGMKTLQGVCAALAEAGVQPHHLDLSHNSLRADTQRCIWPSALNSLNLSFTGLQQVPKGLPAKLNVLDLSCNKLNRAPQPGELPKVVNLSLDGNPFLVPGASKLQEDLTN
Work on B1 yielded an inhibition ratio of binding of F1024-1-3 antibody to human CD14 of 52%.

B2: rhesus monkey soluble type CD14 (in serum) (receptor)
chain: TTPEPCELDDEDFRCVCNFSEPHPDWSEAFQCVSAVEVEIRVGGLSLEPFLTRVDPDADPRQYADTIKALRVRRLTVGAAQVPAQLLVGALRVLAYSRLQELTLEDLEITGTMPPLPLEATGLALSSLRLHNVSWATGRSWLAELQQWLKPGLKVLSIAQAHSPAFSCEQVRAFPALTSLDLSDNPGLGERGLIAALCPHKFPALQNLALRNTGMETPTGVCAALAAAGVQPHSLDLSHNSLRATANPSAPRCMWSSALNSLNLSFAGLEQVPKGLPAKLRVLDLSCNRLNRRPRPDELPQVDNLALDGNPFLVPGTALPQEGSMN
B2 showed an inhibition ratio of binding of F1024-1-3 antibody to human CD14 of 44%.

B3: crab-eating macaque soluble type CD14 (in serum) (receptor)
chain: TTPEPCELDDEDFRCVCNFSEPHPDWSEAFQCVSAVEVEIRVGGLSLEPFLTRVDPDADPRQYADTIKALRVRRLTVGAAQVPAQLLVGALRVLAYSRLQELTLEDLEITGTMPPLPLEATGLALSSLRLHNVSWATGRSWLAELQQWLKPGLKVLSIAQAHSPAFSCEQVRAFPALTSLDLSDNPGLGERGLIAALCPHKFPALQNLALRNTGMETPTGVCAALAAAGVQPHSLDLSHNSLRATANPSAPRCMWSSALNSLNLSFAGLEQVPKGLPAKLRVLDLSCNRLNRRPRPDELPQVDNLALDGNPFLVPGTALPQEGSMN
Work on B3 yielded an inhibition ratio of binding of F1024-1-3 antibody to human CD14 of 57%.

B4: soluble type CD14 purified from human serum (receptor)
chain: TTPEPCELDDEDFRCVCNFSEPQPDWSEAFQCVSAVEVEIHAGGLNLEPFLKRVDADADPRQYADTVKALRVRRLTVGAAQVPAQLLVGALRVLAYSRLKELTLEDLKITGTMPPLPLEATGLALSSLRLRNVSWATGRSWLAELQQWLKPGLKVLSIAQAHSPAFSCEQVRAFPALTSLDLSDNPGLGERGLMAALCPHKFPAIQNLALRNTGIETPTGVCAALAAAGVQPHSLDLSHNSLRATVNPSAPRCMWSSALNSLNLSFAGLEQVPKGLPAKLRVLDLSCNRLNRAPQPDELPEVDNLTLDGNPFLVPGTALPHEGSMNSGVVPACARSTLSVGVSGTLVL
For B4, the inhibition ratio of binding of F1024-1-3 antibody to human CD14 was 83%.
